Patent publication US20250019412A1 (ALPINE IMMUNE SCIENCES, published 2025)
Numbering of substitutions follows the chain as printed. Numbers in names are those of the source. Where “and” joins values, the source holds several entries; their conditions need not be identical. Identical values can stand only once. Like-named read-outs stand apart in the source and are kept apart here.

T1: recombinant human APRIL (human, UniProt O75888 105-250, limits assumed)
T1 sequence (looked up): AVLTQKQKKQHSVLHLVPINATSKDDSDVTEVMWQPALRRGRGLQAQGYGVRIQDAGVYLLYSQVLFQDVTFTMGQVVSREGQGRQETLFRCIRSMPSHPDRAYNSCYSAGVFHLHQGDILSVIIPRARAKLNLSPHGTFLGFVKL

B1: belimumab (antibody, V domains shown)
VH: QVQLQQSGAEVKKPGSSVRVSCKASGGTFNNNAINWVRQAPGQGLEWMGGIIPMFGTAKYSQNFQGRVAITADESTGTASMELSSLRSEDTAVYYCARSRDLLLFPHHALSPWGRGTMVTVSS
VL: SSELTQDPAVSVALGQTVRVTCQGDSLRSYYASWYQQKPGQAPVLVIYGKNNRPSGIPDRFSGSSSGNTASLTITGAQAEDEADYYCSSRDSSGNHWVFGGGTELTVLG
B2: 7 TACI CRD1/CRD2-Fc (Fc fusion)
variant TACI domain - linker - Fc fusion chain: VAMRSCPEEQYWDPLLGTCMSCKTICNHQSQRTCAAFCRSLSCRKEQGKFYDHLLRDCISCASICGQHPKQCDYFCENKLRSGSGGGGSEPKSSDKTHTCPPCPAPEAEGAPSVFLFPPKPKDTLMISRTPEVTCVVVDVSHEDPEVKFNWYVDGVEVHNAKTKPREEQYNSTYRVVSVLTVLHQDWLNGKEYKCKVSNKALPAPIEKTISKAKGQPREPQVYTLPPSRDELTKNQVSLTCLVKGFYPSDIAVEWESNGQPENNYKTTPPVLDSDGSFFLYSKLTVDKSRWQQGNVFSCSVMHEALHNHYTQKSLSLSPG
B3: Telitacicept (label of two rows of Table E29) (Fc fusion, not shown: a dimerising Fc or GST)
chain: SRVDQEERFPQGLWTGVAMRSCPEEQYWDPLLGTCMSCKTICNHQSQRTCAAFCRSLSCRKEQGKFYDHLLRDCISCASICGQHPKQCAYFCENKLRSPVNLPPEL
B4: 20 TACI CRD2-Fc (Fc fusion)
variant TACI domain - linker - Fc fusion chain: SLSCRKEQGKFYDHLLGDCISCASICGQHPKQCAYFCENKLRSGSGGGGSEPKSSDKTHTCPPCPAPEAEGAPSVFLFPPKPKDTLMISRTPEVTCVVVDVSHEDPEVKFNWYVDGVEVHNAKTKPREEQYNSTYRVVSVLTVLHQDWLNGKEYKCKVSNKALPAPIEKTISKAKGQPREPQVYTLPPSRDELTKNQVSLTCLVKGFYPSDIAVEWESNGQPENNYKTTPPVLDSDGSFFLYSKLTVDKSRWQQGNVFSCSVMHEALHNHYTQKSLSLSPG
B5: 31 TACI CRD2-Fc (Fc fusion)
variant TACI domain - linker - Fc fusion chain: B4 variant TACI domain - linker - Fc fusion chain with G17Q, S21N, A34D
B6: TACI 13-118, with K77E/F78Y/Y102D, Fc fusion (Fc fusion)
chain: SRVDQEERFPQGLWTGVAMRSCPEEQYWDPLLGTCMSCKTICNHQSQRTCAAFCRSLSCRKEQGEYYDHLLRDCISCASICGQHPKQCADFCENKLRSPVNLPPELEPKSSDKTHTCPPCPAPEAEGAPSVFLFPPKPKDTLMISRTPEVTCVVVDVSHEDPEVKFNWYVDGVEVHNAKTKPREEQYNSTYRVVSVLTVLHQDWLNGKEYKCKVSNKALPAPIEKTISKAKGQPREPQVYTLPPSRDELTKNQVSLTCLVKGFYPSDIAVEWESNGQPENNYKTTPPVLDSDGSFFLYSKLTVDKSRWQQGNVFSCSVMHEALHNHYTQKSLSLSPG

Experiments:
[1] = biological target: recombinant human BAFF (human) (UniProt Q9Y275); assay: cell-based or functional assay
recombinant human APRIL [2] = biological target: T1, recombinant human APRIL; assay: cell-based or functional assay
[3] = biological target: recombinant human BAFF (human) (UniProt Q9Y275)
recombinant human APRIL [4] = biological target: T1, recombinant human APRIL; assay: cell-based or functional assay; remark: listed apart in the source
recombinant human BAFF [5] = biological target: T2, recombinant human BAFF (human, UniProt Q9Y275 134-285); assay: cell-based or functional assay
recombinant human BAFF [6] = biological target: T2, recombinant human BAFF; assay: cell-based or functional assay; remark: listed apart in the source
recombinant human APRIL [7] = biological target: T1, recombinant human APRIL; assay: cell-based or functional assay; remark: listed apart in the source
recombinant human BAFF [8] = biological target: T2, recombinant human BAFF; assay: cell-based or functional assay; remark: listed apart in the source
recombinant human APRIL [9] = biological target: T1, recombinant human APRIL; assay: cell-based or functional assay; remark: listed apart in the source
recombinant human BAFF [10] = biological target: T2, recombinant human BAFF; assay: cell-based or functional assay; remark: listed apart in the source
recombinant human APRIL [11] = biological target: T1, recombinant human APRIL; assay: cell-based or functional assay; remark: listed apart in the source

Molecule	BAFF IC50 (pM) [1]	BAFF IC50 (ΔWT) (fold of WT TACI (68-110)-Fc) [1]	APRIL IC50 (pM) (recombinant human APRIL [2])	APRIL IC50 (ΔWT) (fold of WT TACI (68-110)-Fc) (recombinant human APRIL [2])	further results
BAFF-R ECD (from UniProt Q96RJ3 1-78) (receptor)	53200 pM	28.7	–	–	–
TACI 13-118-Fc (Fc fusion)	7900 pM	4.26	–	–	IC50 (nM) APRIL (recombinant human APRIL [2]): 7810 nM; IC50 APRIL (Δ TACI 30-110) (fold of TACI 30-110) (recombinant human APRIL [2]): 1.81; IC50 APRIL (Δ TACI 30-110-Fc) (fold of TACI 30-110-Fc) (recombinant human APRIL [2]): 2.37; IC50 (nM) BAFF [1]: 8450 nM; IC50 BAFF (Δ TACI 30-110) (fold of TACI 30-110) [1]: 1.88; IC50 BAFF (Δ TACI 30-110-Fc) (fold of TACI 30-110-Fc) [1]: 1.33
TACI 30-110-Fc (Fc fusion)	7740 pM	4.17	–	–	IC50 (nM) APRIL (recombinant human APRIL [2]): 4320 nM; IC50 APRIL (Δ TACI 30-110) (fold of TACI 30-110) (recombinant human APRIL [2]): 1; IC50 APRIL (Δ TACI 30-110-Fc) (fold of TACI 30-110-Fc) (recombinant human APRIL [2]): 1; IC50 (nM) BAFF [1]: 4490 nM; IC50 BAFF (Δ TACI 30-110) (fold of TACI 30-110) [1]: 1; IC50 BAFF (Δ TACI 30-110-Fc) (fold of TACI 30-110-Fc) [1]: 1
TACI vTD-Fc A101D (SEQ ID NO: 23) (Fc fusion)	1830 pM	0.99	8380 pM	0.68	IC50 (read off the curve): blockade of human BAFF signalling via TACI (NF-κB luciferase reporter, Jurkat/NF-κB/TACI cells) [3]: 0.6 nM
TACI vTD-Fc A101D, Y102D (SEQ ID NO: 189) (Fc fusion)	1950 pM	1.05	33600 pM	2.72	–
TACI vTD-Fc F78Y (SEQ ID NO: 183) (Fc fusion)	1640 pM	0.88	176 pM	0.01	–
TACI vTD-Fc F78Y, A101D (SEQ ID NO: 185) (Fc fusion)	1850 pM	1	2020 pM	0.16	–
TACI vTD-Fc F78Y, R84Q (SEQ ID NO: 184) (Fc fusion)	2260 pM	1.22	2620 pM	0.21	–
TACI vTD-Fc F78Y, Y102D (SEQ ID NO: 186) (Fc fusion)	1960 pM	1.06	8490 pM	0.69	–
TACI vTD-Fc K77E (SEQ ID NO: 32) (Fc fusion)	1540 pM	0.83	159 pM	0.01	–
TACI vTD-Fc K77E, A101D (SEQ ID NO: 25) (Fc fusion)	1960 pM	1.06	2040 pM	0.17	IC50 (read off the curve): blockade of human BAFF signalling via TACI (NF-κB luciferase reporter, Jurkat/NF-κB/TACI cells) [3]: 0.6 nM
TACI vTD-Fc K77E, F78Y (SEQ ID NO: 191) (Fc fusion)	1970 pM	1.06	10100 pM	0.82	–
TACI vTD-Fc K77E, F78Y, R84Q (SEQ ID NO: 182) (Fc fusion)	2210 pM	1.19	10100 pM	0.82	–
TACI vTD-Fc K77E, R84Q (SEQ ID NO: 24) (Fc fusion)	2260 pM	1.22	4260 pM	0.35	IC50 (read off the curve): blockade of human BAFF signalling via TACI (NF-κB luciferase reporter, Jurkat/NF-κB/TACI cells) [3]: 0.6 nM
TACI vTD-Fc K77E, Y102D (SEQ ID NO: 192) (Fc fusion)	2180 pM	1.17	891 pM	0.07	–
TACI vTD-Fc Q75E (SEQ ID NO: 177) (Fc fusion)	1460 pM	0.79	1940 pM	0.16	–
TACI vTD-Fc Q75E, A101D (SEQ ID NO: 180) (Fc fusion)	2360 pM	1.27	20000 pM	1.62	–
TACI vTD-Fc Q75E, F78Y (SEQ ID NO: 179) (Fc fusion)	1790 pM	0.97	13400 pM	1.09	–
TACI vTD-Fc Q75E, K77E (SEQ ID NO: 178) (Fc fusion)	1890 pM	1.02	10700 pM	0.87	–
TACI vTD-Fc Q75E, Y102D (SEQ ID NO: 181) (Fc fusion)	–	–	11100 pM	–	–
TACI vTD-Fc R84Q (SEQ ID NO: 30) (Fc fusion)	5490 pM	2.96	566 pM	0.05	IC50 (read off the curve): blockade of human BAFF signalling via TACI (NF-κB luciferase reporter, Jurkat/NF-κB/TACI cells) [3]: 1 nM
TACI vTD-Fc R84Q, A101D (SEQ ID NO: 187) (Fc fusion)	2350 pM	1.27	11200 pM	0.91	–
TACI vTD-Fc R84Q, Y102D (SEQ ID NO: 188) (Fc fusion)	1860 pM	1.01	12300 pM	1	–
TACI vTD-Fc Y102D (SEQ ID NO: 190) (Fc fusion)	–	–	11600 pM	–	–
B1	–	–	–	–	IC50 APRIL (Δ TACI 30-110-Fc) (recombinant human APRIL [4]): 55.8 fold of TACI 30-110-Fc; IC50 BAFF (Δ TACI 30-110-Fc) (recombinant human BAFF [5]): 0.43 fold of TACI 30-110-Fc; BAFF IC50 (pM) (recombinant human BAFF [6]): 2200 pM; BAFF IC50 (ΔWT) (recombinant human BAFF [6]): 1.18 fold of WT TACI (68-110)-Fc
B2	–	–	–	–	IC50 (read off the curve): blockade of human APRIL signalling via TACI (NF-κB luciferase reporter, Jurkat/NF-κB/TACI cells) (recombinant human APRIL [7]): ~3 nM; IC50 (read off the curve): blockade of human BAFF signalling via TACI (NF-κB luciferase reporter, Jurkat/NF-κB/TACI cells) (recombinant human BAFF [8]): ~2 nM
B3	9170 pM and 7300 pM	4.95 and 3.94	–	–	–
B4	–	–	–	–	IC50 (read off the curve): blockade of human BAFF signalling via TACI (NF-κB luciferase reporter, Jurkat/NF-κB/TACI cells) (recombinant human BAFF [8]): ~0.7 nM
B5	–	–	–	–	IC50 (read off the curve): blockade of human BAFF signalling via TACI (NF-κB luciferase reporter, Jurkat/NF-κB/TACI cells) (recombinant human BAFF [8]): ~0.6 nM
B6	–	–	–	–	IC50 (nM) APRIL (recombinant human APRIL [9]): 848 nM; IC50 APRIL (Δ TACI 30-110) (recombinant human APRIL [9]): 0.2 fold of TACI 30-110; IC50 (nM) BAFF (recombinant human BAFF [10]): 2050 nM; IC50 BAFF (Δ TACI 30-110) (recombinant human BAFF [10]): 0.46 fold of TACI 30-110; APRIL IC50 (pM) (recombinant human APRIL [11]): 13200 pM; APRIL IC50 (ΔWT) (recombinant human APRIL [11]): 1.07 fold of WT TACI (68-110)-Fc; BAFF IC50 (pM) (recombinant human BAFF [6]): 1990 pM; BAFF IC50 (ΔWT) (recombinant human BAFF [6]): 1.07 fold of WT TACI (68-110)-Fc
